From PMC9896449 (Nature Communications, 2023)

Legend:
[1] = target: ShAb01 (shark VNAR - human IgG1 Fc chimera) (nurse shark (Ginglymostoma cirratum)); assay: BLI; settings: both partners purified
[2] = target: ShAb02 (shark VNAR - human IgG1 Fc chimera) (nurse shark (Ginglymostoma cirratum)); assay: BLI; settings: both partners purified

B1: SARS-CoV-1 RBD (domain or fragment)
chain: not shown
binding result [1]: binds
binding result [2]: no binding
